According to patent publication US8431531B2, “Methods for stimulating glucagon-like peptide-1(GLP-1) secretion and treatments comprising same” (Campina Nederland Holding B.V., priority 2005, dated 2013):

Tests used:
[1] = plasma; degradation by DPP-IV; cited from earlier work
DPP-IV = biological target: T1, DPP-IV (Sus scrofa, UniProt P22411); assay: In vitro measurement of DPP-IV activity (Gly-Pro-p-nitroanilide substrate, absorption at 385 nm); type: biochemical; conditions: Tris buffer pH 8.0
T1 construct: purchased Sigma D-7052
T1 sequence (P22411 whole entry): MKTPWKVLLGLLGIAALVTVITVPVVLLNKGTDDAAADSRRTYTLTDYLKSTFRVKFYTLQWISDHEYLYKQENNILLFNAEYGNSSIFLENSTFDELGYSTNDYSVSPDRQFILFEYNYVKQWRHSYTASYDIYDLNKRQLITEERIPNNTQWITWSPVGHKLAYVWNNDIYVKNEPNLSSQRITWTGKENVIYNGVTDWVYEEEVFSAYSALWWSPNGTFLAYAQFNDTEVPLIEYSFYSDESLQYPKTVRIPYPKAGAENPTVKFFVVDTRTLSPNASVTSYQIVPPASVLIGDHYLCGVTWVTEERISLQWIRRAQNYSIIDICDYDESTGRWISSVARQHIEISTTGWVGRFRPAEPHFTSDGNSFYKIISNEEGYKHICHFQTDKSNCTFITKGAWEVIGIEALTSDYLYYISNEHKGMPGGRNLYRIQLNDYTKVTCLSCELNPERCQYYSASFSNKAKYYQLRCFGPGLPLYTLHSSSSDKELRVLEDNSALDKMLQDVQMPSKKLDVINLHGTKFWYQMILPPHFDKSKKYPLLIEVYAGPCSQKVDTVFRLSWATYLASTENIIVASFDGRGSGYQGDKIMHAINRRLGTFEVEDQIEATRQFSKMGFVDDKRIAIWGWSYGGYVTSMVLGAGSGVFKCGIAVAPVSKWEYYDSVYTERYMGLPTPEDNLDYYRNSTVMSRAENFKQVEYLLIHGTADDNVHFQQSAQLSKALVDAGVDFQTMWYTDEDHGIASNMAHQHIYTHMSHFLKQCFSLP
Method: DPP-IV activity can be determined by measuring the increase in absorption at 385 nm using Gly-Pro-p-nitroanilide (Sigma G-0513) as DPP-IV substrate. A decrease in DPP-IV activity is a measure for the inhibition.
13.152 mg Gly-Pro-p-nitroanilide (substrate; Sigma G-0513) was dissolved in 1 ml Tris buffer, pH 8.0. DPP-IV (Sigma D-7052) was diluted with Tris buffer, pH 8.0 to 1.1 Unit/ml. The substrate was diluted 50-fold with Tris buffer, pH 8.0. The samples were prepared by diluting a protein hydrolysate to a 1 wt. % protein solution in Tris buffer, pH 8.0. The samples were then serially diluted to obtain a range of sample concentrations. 50 μl of the different serially diluted samples and 50 μl of the diluted substrate were then pipetted in wells of a microtiter plate with 96 wells. Subsequently, 100 μl of the diluted enzyme was pipetted in each well of a plate with 96 wells. Then the increase in absorption at 385 nm was determined and DPP-IV activities at different concentrations of a variety of protein hydrolysates were determined, from which the IC50 (i.e. the concentration of inhibitor (particular protein hydrolysate) that inhibits 50% of the DPP-IV activity) could be derived. […] The degree of hydrolysis was determined using the o-phtaldialdehyde method, which is well known in the art.

[2] = tested on: Bipro from Davisco Foods, USA (unhydrolysed, DH 0%)
[3] = tested on: Sodium caseinate from DMV International, NL (unhydrolysed, DH 0%)

Substance: GLP-1: 30 amino acid incretin peptide, sequence HAEGTFTSDVSSYLEGQAAKEFIAWLVKGR (SEQ ID NO: 1)
- half-life [1]: 1 to 2 min

Substance: Sodium caseinate
- DPP-IV inhibition by unhydrolysed protein (control, DH 0%) (DPP-IV): did not inhibit the enzyme

Substance: dipeptidyl peptidase IV (DPP-IV)
- DPP-IV activity (Gly-Pro-p-nitroanilide substrate, absorption at 385 nm) [2]: unhydrolysed protein did not inhibit the enzyme
- DPP-IV activity (Gly-Pro-p-nitroanilide substrate, absorption at 385 nm) [3]: unhydrolysed protein did not inhibit the enzyme
